Results as given in US20260226173A1, “COMPOSITIONS INCLUDING ANTI-WT-1 ANTIBODIES & ANTIGEN BINDING FRAGMENTS AND USES THEREOF” (Memorial Sloan-Kettering Cancer Center, priority 2023, published 2026).

Molecular target: HLA-A2-negative cells (HL-60, K562, primary AML 120B, normal cells of HLA-A2-negative donors)
Test: cell-based or functional assay

- Reduction of CD33+ cells (%), AbTCR-CSR #34 T cells (with anti-CD33 CSR), primary AML 120B (HLA-A*02:01 -): 2.3%
B1: ESK2 caTCR clone #34 (AbTCR), expressed on primary T cells (protein)
VH: QVQLVQSGTEVRKPGASLKVSCTTSGYIFTGYYIHWVRQVPGQGLEWMGWINPNSGVTEFAQGFQGRITMTRDTSTSTVYMELSRLTSDDTAVYYCAREGVWGYYDSWGQGTLVTVSS
VL: SSELTQDPAVSVALGQTVRITCQGDSLRSYYASWYQQKPGQAPVLVIYDKNNRPSGIPDRFSGSSSGNTASLTITGAQAEDEADYYCNSRDSSGNHHVVFGGGTKLTVLG
